Non-standard residues stand in square brackets, D forms with d. No end group written: not given here. pS = N[C@@H](COP(=O)(O)O)C(=O)O
Tests used:
p38 MAPK δ isoform = molecular target: T1, p38 MAPK δ isoform (Homo sapiens, UniProt O15264); assay: SelectScreen kinase profiling; format: biochemical; conditions: NiPp 100 μM
T1 sequence (O15264 1-365): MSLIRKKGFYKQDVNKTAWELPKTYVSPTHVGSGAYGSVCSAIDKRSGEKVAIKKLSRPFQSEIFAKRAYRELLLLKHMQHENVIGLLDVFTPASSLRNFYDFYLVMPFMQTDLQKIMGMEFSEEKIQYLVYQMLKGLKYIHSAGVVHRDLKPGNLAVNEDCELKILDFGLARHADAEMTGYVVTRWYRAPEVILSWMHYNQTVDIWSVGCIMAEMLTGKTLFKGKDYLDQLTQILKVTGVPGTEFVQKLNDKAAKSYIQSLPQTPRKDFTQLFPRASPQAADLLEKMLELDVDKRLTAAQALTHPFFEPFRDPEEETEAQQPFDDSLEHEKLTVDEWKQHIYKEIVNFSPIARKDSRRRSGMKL
Protocol: (§1) Kinase profiling. NiPp was dissolved in DMSO, screened at a single concentration of 100 μM using in vitro kinase assays (SelectScreen Kinase Profiling Service; ThermoFisher Scientific, Madison WI) including the Z'LYTE and Adapta kinase activity assays and the LanthaScreen Eu Kinase Binding Assay). Candidate interactions were predicted using STRING Version 11 (www.string-db-org) with the human database at confidence=0.7.
(§2) Since NiPp treatment was associated with decreased phosphorylation of p38 MAPK in RA, a mechanism of NiPp function can kinase inhibition. Therefore, a kinase profiling assay was performed to determine the effect of NiPp on the activity of a panel of kinases in vitro. The top two kinases inhibited by NiPp were MSK1 and p38 MAPKα. Inhibition to the p38 MAPKα isoform appeared to be specific as inhibition by NiPp to the other isoforms (β, δ, and γ) in the kinaseprofiling screen were only at 5, 3, and 3% respectively. Despite high sequence homology, the isoforms have difference in tissue expression, upstream kinase activators and downstream substrates. The p38 MAPKα isoform, initially identified as a protein that underwent phosphorylation in response to endotoxin treatment and hyperosmolarity shock, plays a role in endothelial dysfunction in that inhibition of this isoform leads to improved endothelial function in animal models of cardiovascular diseases including cardiac hypertrophy, balloon injury, salt/fat induced hypertension and in hypercholesterolemic patients. The α-isoform is also a key regulator of pro-inflammatory cytokine production and itself can be activated by IL1-β. MSK1, a downstream kinase of the p38 MAPK activation (FIG. 19), has complex cell-dependent roles in inflammatory responses. In endothelial cells, MSK1 promotes CREB activation in response to TNFα.

p38 MAPK γ isoform = molecular target: T2, p38 MAPK γ isoform (Homo sapiens, UniProt P53778); assay: SelectScreen kinase profiling; format: biochemical; conditions: NiPp 100 μM
T2 sequence (P53778 1-367): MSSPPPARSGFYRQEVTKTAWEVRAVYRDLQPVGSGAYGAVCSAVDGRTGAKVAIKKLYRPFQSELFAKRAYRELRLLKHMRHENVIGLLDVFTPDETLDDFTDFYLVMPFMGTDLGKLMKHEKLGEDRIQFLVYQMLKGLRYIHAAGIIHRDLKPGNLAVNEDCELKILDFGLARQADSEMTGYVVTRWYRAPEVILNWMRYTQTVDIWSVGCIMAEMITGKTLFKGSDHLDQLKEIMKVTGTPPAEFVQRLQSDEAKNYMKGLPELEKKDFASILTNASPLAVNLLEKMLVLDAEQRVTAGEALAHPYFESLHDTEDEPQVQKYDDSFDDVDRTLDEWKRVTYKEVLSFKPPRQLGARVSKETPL
Protocol: as §1, §2

p38 MAPK β isoform = p38 MAPK β isoform (Homo sapiens, UniProt Q15759); assay: SelectScreen kinase profiling; format: biochemical; conditions: NiPp 100 μM
Protocol: as §1, §2

p38 MAPK phosphorylation = p38 MAPK phosphorylation (Western blot) in rat aorta after subfailure stretch injury; format: cell-based; conditions: NiPp 500 μM, 1 h, immunoblot
Protocol: Freshly isolated rat aorta (RA) was subjected to subfailure stretch and incubated in PL in the absence (S) or presence of NiPp (500 μM) for 1 h at room temperature. […] The percent relaxation was determined as a change to the maximal PE-induced contraction. n=5 rats; #p<0.05, two-way ANOVA. […] Quantification of relative phosphorylation to total p38MAPK level is shown. N=10. *p<0.05, in one-way ANOVA with Tukey post-test. NiPp restores endothelial dysfunction and reduced p38 MAPK phosphorylation induced by stretch injury in RA.
Vascular injury and treatment of RA. Abdominal RA was subjected to subfailure stretch to the haptic endpoint (˜200% the resting length) for 10 s and repeated twice as previously described and a segment was reserved as non-stretched control. The tissues were then cut into 1-2 mm rings and incubated for 1 h at room temperature in PL with or without NiPp (500 μM). To induce acidotic injury, thoracic RA were cut into 1-2 mm rings and pretreated in the absence or presence of NiPp (500 μM) in PL for 30 min. […]
Western blot Analysis. […] The protein-antibody complexes were visualized and quantified using the Odyssey Infrared Imaging System. Phosphorylation was calculated as a ratio of the phosphorylated protein to total protein and was then normalized to the untreated tissues (Ctrl) with the control value set as 1.0.

Sequence of p38 MAPK β isoform (Q15759 whole entry, canonical isoform): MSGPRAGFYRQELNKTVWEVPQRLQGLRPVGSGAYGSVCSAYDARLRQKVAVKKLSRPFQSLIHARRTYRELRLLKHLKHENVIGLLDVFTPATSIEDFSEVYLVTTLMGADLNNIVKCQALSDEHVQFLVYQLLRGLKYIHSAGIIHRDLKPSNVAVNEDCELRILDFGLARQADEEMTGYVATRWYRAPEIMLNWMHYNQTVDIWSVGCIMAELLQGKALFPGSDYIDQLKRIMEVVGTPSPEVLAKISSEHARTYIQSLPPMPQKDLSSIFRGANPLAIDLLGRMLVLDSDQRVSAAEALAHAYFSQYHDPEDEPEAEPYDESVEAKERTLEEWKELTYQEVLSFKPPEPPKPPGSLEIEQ

Which results are given for “YARAAARQARASPAARRA(pS)AILPG (YARAAARQARASPAARRA[pS]AILPG) [NiPp, Cell-permeant phosphopeptide mimetic of Niban: transduction domain … conjugated to the region surrounding serine 602 of Niban]”?
% inhibition of p38 MAPK δ isoform (p38 MAPK δ isoform): 3%; % inhibition of p38 MAPK γ isoform (p38 MAPK γ isoform): 3%; % inhibition of p38 MAPK β isoform (p38 MAPK β isoform): 5%; p38 MAPK phosphorylation relative to total p38 MAPK after stretch injury (p38 MAPK phosphorylation): reduced

Source: patent publication US12583895B2, “Polypeptides for restoring endothelial function and methods of use thereof” (Vanderbilt University, priority 2019, dated 2026)
